B1: LCOR (parent)
chain: PCAGSTSLSHSPGCSSTQGNGRPG
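Note: lentivirally expressed fusions sorted by FACS into six bins by GFP to DsRed ratio, PSI derived from sequencing read proportions per bin multiplied by bin number.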

The variants in the data set derive from B1. Nature of the data set: protein stability index of a GFP-peptide fusion (GPS, HEK-293T) (PSI 1-6); higher = more stable. As to conditions: c terminus: a fixed tail appended.
As for PCAGSTSLSHSPGVSSTQGNGRPG [C14V], the protein stability index worked out at 4.85.
Consider PCAGSTSLSHSPGPSSTQGNGRPG [C14P], for which the protein stability index stood at 4.48.
Consider PCAGSTSLSHSPGFSSTQGNGRPG [C14F], for which the protein stability index was found to be 4.71.
To PCAGSTSLSHSPGYSSTQGNGRPG [C14Y] belongs 3.83; to PCAGSTSLSHSPGASSTQGNGRPG [C14A], 4.12.
With PCAGSTSLSHSPGHSSTQGNGRPG [C14H], the protein stability index came out at 4.93.
Consider PCAGSTSLSHSPGGSSTQGNGRPG [C14G], for which the protein stability index was determined as 5.25.
As for PCAGSTSLSHSPGMSSTQGNGRPG [C14M], the protein stability index amounted to 4.53.
On to PCAGSTSLSHSPGSSSTQGNGRPG [C14S], for which the protein stability index came out at 5.88.
As to PCAGSTSLSHSPGQSSTQGNGRPG [C14Q], the protein stability index worked out at 5.14.
PCAGSTSLSHSPGRSSTQGNGRPG [C14R]: the protein stability index was determined as 3.86.
As for PCAGSTSLSHSPGKSSTQGNGRPG [C14K], the protein stability index came out at 5.01.
Take PCAGSTSLSHSPGTSSTQGNGRPG [C14T]: the protein stability index amounted to 4.93.
As for PCAGSTSLSHSPGCSSTQGNIRPG [G21I], the protein stability index was 3.54.
Turning to PCAGSTSLSHSPGCSSTQGNKRPG [G21K], the protein stability index came out at 3.79.
As to PCAGSTSLSHSPGCSSTQGNFRPG [G21F], the protein stability index turned out to be 1.98.
To PCAGSTSLSHSPGCSSTQGNARPG [G21A] belongs 3.63; to PCAGSTSLSHSPGCSSTQGNHRPG [G21H], 2.31; to PCAGSTSLSHSPGCSSTQGNRRPG [G21R], 3.29.
Take PCAGSTSLSHSPGCSSTQGNSRPG [G21S]: the protein stability index stood at 2.81.
PCAGSTSLSHSPGCSSTQGNYRPG [G21Y]: the protein stability index came out at 2.92.
Consider PCAGSTSLSHSPGCSSTQGNTRPG [G21T], for which the protein stability index amounted to 2.1.
Turning to PCAGSTSLSHSPGCSSTQGNDRPG [G21D], the protein stability index was found to be 3.95.
Take PCAGSTSLSHSPGCSSTQGNNRPG [G21N]: the protein stability index turned out to be 3.57.
For PCAGSTSLSHSPGCSSTQGNPRPG [G21P], the protein stability index was found to be 2.53.
For PCAGSTSLSHSPGCSSTQGNCRPG [G21C], the protein stability index is 2.85.
Turning to PCAGSTSLSHSPGCSSTQGNERPG [G21E], the protein stability index came out at 3.96.
To PCAGSTSLSHSPGCSSTQGNWRPG [G21W] belongs 2.34; to PCAGSTSLSHSPGCSSTQGNQRPG [G21Q], 3.36; to PCAGSTSLSHSPGCSSPQGNGRPG [T17P], 3.51.
In the case of PCAGSTSLSHSPGCSSSQGNGRPG [T17S], the protein stability index worked out at 2.53.
PCAGSTSLSHSPGCSSFQGNGRPG [T17F]: the protein stability index worked out at 1.81.
For the variant PCAGSTSLSHSPGCSSHQGNGRPG [T17H], the protein stability index stood at 3.36.
As to PCAGSTSLSHSPGCSSIQGNGRPG [T17I], the protein stability index came out at 2.02.
Turning to PCAGSTSLSHSPGCSSKQGNGRPG [T17K], the protein stability index was 3.44.
To PCAGSTSLSHSPGCSSWQGNGRPG [T17W] belongs 1.89.
As to PCAGSTSLSHSPGCSSCQGNGRPG [T17C], the protein stability index came to 1.47.
Regarding PCAGSTSLSHSPGCSSVQGNGRPG [T17V], the protein stability index amounted to 1.75.
Turning to PCAGSTSLSHSPGCSSYQGNGRPG [T17Y], the protein stability index amounted to 2.28.
PCAGSTSLSHSPGCSSAQGNGRPG [T17A]: the protein stability index turned out to be 3.08.
For the variant PCAGSTSLSHSPGCSSMQGNGRPG [T17M], the protein stability index is 2.17.
Take PCAGSTSLSHSPGCSSEQGNGRPG [T17E]: the protein stability index was 3.47.
For PCAGSTSLSHSPGCSSNQGNGRPG [T17N], the protein stability index was 2.29.
As to PCAGSTSLSHSPGCSSTQGDGRPG [N20D], the protein stability index came to 3.44.
As for PCAGSTSLSHSPGCSSTQGLGRPG [N20L], the protein stability index came out at 2.91.
To PCAGSTSLSHSPGCSSTQGSGRPG [N20S] belongs 3.1.
PCAGSTSLSHSPGCSSTQGPGRPG [N20P]: the protein stability index turned out to be 2.51.
In the case of PCAGSTSLSHSPGCSSTQGFGRPG [N20F], the protein stability index was 2.66.
Next, PCAGSTSLSHSPGCSSTQGVGRPG [N20V]: 3.58.
For the variant PCAGSTSLSHSPGCSSTQGHGRPG [N20H], the protein stability index was determined as 2.79.
For the variant PCAGSTSLSHSPGCSSTQGAGRPG [N20A], the protein stability index was determined as 4.09.
Take PCAGSTSLSHSPGCSSTQGMGRPG [N20M]: the protein stability index was determined as 2.83.
Next, PCAGSTSLSHSPGCSSTQGEGRPG [N20E]: 2.88; PCAGSTSLSHSPGCSSTQGTGRPG [N20T]: 2.35.
Take PCAGSTSLSHSPGCSSTQGIGRPG [N20I]: the protein stability index amounted to 2.19.
In the case of PCAGSTSLSHSPGCSSTQGRGRPG [N20R], the protein stability index was 3.07.
With PCAGSTSLSHSPGCSSTQYNGRPG [G19Y], the protein stability index amounted to 2.5.
Regarding PCAGSTSLSHSPGCSSTQKNGRPG [G19K], the protein stability index turned out to be 3.48.
As to PCAGSTSLSHSPGCSSTQINGRPG [G19I], the protein stability index was found to be 2.9.
Consider PCAGSTSLSHSPGCSSTQQNGRPG [G19Q], for which the protein stability index was 3.64.
For the variant PCAGSTSLSHSPGCSSTQHNGRPG [G19H], the protein stability index stood at 2.32.
On to PCAGSTSLSHSPGCSSTQCNGRPG [G19C], for which the protein stability index came out at 2.56.
As to PCAGSTSLSHSPGCSSTQANGRPG [G19A], the protein stability index turned out to be 3.65.
With PCAGSTSLSHSPGCSSTQNNGRPG [G19N], the protein stability index came out at 2.94.
For the variant PCAGSTSLSHSPGCSSTQSNGRPG [G19S], the protein stability index came out at 3.84.
Regarding PCAGSTSLSHSPGCSSTQTNGRPG [G19T], the protein stability index was determined as 3.24.
In the case of PCAGSTSLSHSPGCSSTQLNGRPG [G19L], the protein stability index was determined as 2.91.
On to PCAGSTSLSHSPGCSSTQFNGRPG [G19F], for which the protein stability index is 3.15.
To PCAGSTSLSHSPGCSSTQVNGRPG [G19V] belongs 3.19.
To PCAGSTSLSHSPGCSSTQWNGRPG [G19W] belongs 1.91.
On to PCAGSTSLSHSPGCSSTQPNGRPG [G19P], for which the protein stability index turned out to be 3.31.
For PCAGSTSLSHSPGCSSTQDNGRPG [G19D], the protein stability index amounted to 3.91.
With PCAGSTSLSHSPGCSSTQRNGRPG [G19R], the protein stability index stood at 2.32.
For the variant PCAGSTSLSHSPGCSSTQMNGRPG [G19M], the protein stability index was 2.88.
For PCAGSTSLSHSPGCSSTQENGRPG [G19E], the protein stability index worked out at 3.8.
Take PCAGSTSLSHSPGCSSTQGNGRPP [G24P]: the protein stability index is 3.42.
Take PCAGSTSLSHSPGCSSTQGNGRPE [G24E]: the protein stability index is 2.65.
PCAGSTSLSHSPGCSSTQGNGRPI [G24I]: the protein stability index was found to be 3.09.
In the case of PCAGSTSLSHSPGCSSTQGNGRPV [G24V], the protein stability index was 2.68.
Take PCAGSTSLSHSPGCSSTQGNGRPR [G24R]: the protein stability index was 3.07.
With PCAGSTSLSHSPGCSSTQGNGRPW [G24W], the protein stability index was 2.47.
Take PCAGSTSLSHSPGCSSTQGNGRPC [G24C]: the protein stability index amounted to 2.48.
As to PCAGSTSLSHSPGCSSTQGNGRPH [G24H], the protein stability index was determined as 3.81.
Turning to PCAGSTSLSHSPGCSSTQGNGRPM [G24M], the protein stability index amounted to 2.82.
Consider PCAGSTSLSHSPGCSSTQGNGRPD [G24D], for which the protein stability index is 3.72.
On to PCAGSTSLSHSPGCSSTQGNGRPQ [G24Q], for which the protein stability index is 3.37.
For PCAGSTSLSHSPGCSSTQGNGRPA [G24A], the protein stability index was determined as 3.38.
Consider PCAGSTSLSHSPGCSSTQGNGRPF [G24F], for which the protein stability index came to 2.95.
Take PCAGSTSLSHSPGCSSTQGNGRPY [G24Y]: the protein stability index came out at 2.61.
PCAGSTSLSHSPGCSSTQGNGRPL [G24L]: the protein stability index came out at 2.94.
For the variant PCAGSTSLSHSPGCSSTQGNGRPS [G24S], the protein stability index was found to be 3.22.
With PCAGSTSLSHSPGCSSTQGNGRPN [G24N], the protein stability index was determined as 3.87.
On to PCAGSTSLSHSPGCSSTQGNGRPK [G24K], for which the protein stability index is 3.77.
To PCAGSTSLSHSPGCSSTQGNGRPT [G24T] belongs 3.51.

The values are drawn from the supplement of paper PMC10567573.
